The supplement of paper PMC10567573

B1: ZNF649 (parent)
chain: LTEHKRIHTGKKPHVCSLCGKAFY

Variants of: B1
Test: protein stability index of a GFP-peptide fusion (GPS, HEK-293T) (PSI 1-6); higher = more stable
Conditions: c terminus: a fixed tail appended
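Also: lentivirally expressed fusions sorted by FACS into six bins by GFP to DsRed ratio, PSI derived from sequencing read proportions per bin multiplied by bin number.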

Protein stability index, by site and new letter:
K5: R 2.63, M 2.79, L 2.23, N 3.39, D 3.35, T 2.88, F 2.25, P 1.15, I 3, S 2.3, W 3.18, Q 2.79, A 3.06, E 3.03, V 2.48, C 4.3
H8: C 3.2, Q 3.1, E 3.25, F 2.71, R 4.2, L 2.29, K 2.14, D 2.67, I 2.17, G 2.13, W 2.06, M 2.49, V 2.18, T 2.58, P 4.21, Y 2.89, A 2.86
G20: C 2.93, T 1.55, H 1.6, P 1.91, L 2.06, M 2.56, D 2.79, Y 2.9, K 1.24, N 3.49, F 1.97, S 2.35, Q 3.04, R 2.05, I 1.91, W 2.59, A 3.75, V 1.94
K21: T 2.78, V 3.11, L 1.77, H 1.91, G 2.38, P 2.55, W 2.15, Y 1.79, F 1.73, S 2.44, D 2.72, N 3.08, A 2.03, I 2.11, E 2.67, C 1.39, Q 3.8, M 1.98
I7: K 1.98, W 2.5, T 2.71, M 2.4, V 2.58, C 2.6, P 2.38, Q 2.73, L 3.11, E 2.71, G 2.78, N 2.85, D 2.31, H 2.16, S 3.72, R 3.93, F 2.18, A 2.52
S17: L 1.72, E 2.84, Q 2.46, F 2.2, C 1.96, T 1.82, A 2.58, N 2.58, H 2.01, M 2.83, I 2.48, G 1.72, R 1.94, V 1.49, Y 2.11, W 2.72, K 2.34, P 2.97
H4: R 2.24, Y 2.36, S 2.58, W 2.78, M 2.47, V 1.94, N 2.84, T 2.52, P 2.43, Q 3.31
V15: C 2.6, G 2.56, Y 2.55, Q 2.35, M 2.98, R 2.32, L 1.89, S 2.23, H 2.34, T 2.46, A 1.54, F 2.42, E 2.56, N 2.05, K 2.9, P 2.71, I 2.69, D 2.93, W 1.83
A22: E 2.24, K 3.71, T 3.41, L 2.27, N 3.23, W 2.48, M 2.85, I 2.62, C 2.55, F 2.16, R 3.22, D 2.51, V 2.85, G 2.56, Q 2.26, P 2.9, H 2.46, S 2.55
P13: N 2.15, F 2.23, H 2.29, L 2.32, K 2.03, R 3.48, T 3.55, Y 2.88, S 2.33, G 2.48, M 3.06, I 2.84, V 3.06, D 1.8, E 2.96, Q 2.26
K11: H 2.23, E 3.4, R 1.76, V 2.88, D 3.21, F 2.79, W 3.42, T 2.62, P 2.76, Q 3.01, C 2.43, G 2.54, S 2.43, Y 2.5, A 2.32, M 2.56, I 2.77, N 2.35, L 2.96
K12: A 2.44, L 2.5, W 2.27, C 2.81, I 2.5, R 2.61, T 1.79, P 2.31, Y 2.32, D 3.14, N 3.3, F 2.32, V 3.42, Q 2.39, E 2.75, M 2.28, G 3.6, H 1.97, S 1.78
F23: D 3.98, A 2.77, G 2.67, H 4.3, E 3.69, C 3.07
H14: W 3.52, F 2.4, C 2.78, R 2.2, V 1.96, G 2.22, Q 2.97, P 3.18, S 2.25, D 2.34, N 1.97, T 2.17, L 2.71, A 3.54, Y 2.63, M 2.86
G10: I 2.49, Q 2.28, A 2.78, F 3.73, Y 2.45, E 3.6, K 2.96, T 2.83, C 3.76, S 2.19, W 2.97, D 2.63, M 3.35, N 1.98, V 2.28, P 3.22, L 2.27, H 2.16
R6: H 3.63, K 2.33, W 2.75, Q 4.11, L 2.14, S 2.25, C 4.05, G 1.94, I 2.71, Y 2.5, T 3.08, D 2.93, E 3.42, N 2.58, F 2.33
T9: Y 2.3, A 2.04, Q 2.31, L 2.51, V 3.62, K 2.35, P 2.85, F 2.8, S 3.36, M 2.85, I 1.87, G 2.8, C 2.32, E 2.98, H 3.04, D 3.3, W 3.49, R 2.45
C16: A 2.94, E 3.62, R 2.4, Q 1.93, M 2.75, Y 2.23, I 2.18, G 2.01, V 2.2, H 2.71, F 1.48, T 2.23, P 2.56, K 2.32, D 3.15, N 2.55, L 2.17, S 3.52
C19: D 3.3, V 2.1, H 3.06, W 1.3, K 2.64, P 2.38, F 1.81, N 2.89, L 2.24, I 1.75, M 2.46, T 2.24, R 3.01, E 3.09, G 2.39, Y 2.15, Q 2.04, A 2.65, S 1.92
L18: W 1.7, I 2.23, T 2.35, D 2.84, P 3.85, S 2.89, Y 2.2, A 1.97, Q 2.9, N 5.08, C 3.2, K 2.66, V 2.37, R 3, G 2.82, E 3.18, M 3.36, H 3.13
